According to patent US20210371499A1 (University of California, published 2021):

Target: l[…]/HLA-A*02:01 (l = D-leucine) (human)
Test: SEC TAPBPR binding assay

B1: TAPasin Binding Protein Related (TAPBPR), luminal domain, His6-tagged (other)
chain: KPHPAEGQWRAVDVVLDCFLAKDGAHRGALASSEDRARASLVLKQVPVLDDGSLEDFTDFQGGTLAQDDPPIIFEASVDLVQIPQAEALLHADCSGKEVTCEISRYFLQMTETTVKTAAWFMANMQVSGGGPSISLVMKTPRVTKNEALWHPTLNLPLSPQGTVRTAVEFQVMTQTQSLSFLLGSSASLDCGFSMAPGLDLISVEWRLQHKGRGQLVYSWTAGQGQAVRKGATLEPAQLGMARDASLTLPGLTIQDEGTYICQITTSLYRAQQIIQLNIQASPKVRLSLANEALLPTLICDIAGYYPLDVVVTWTREELGGSPAQVSGASFSSLRQSVAGTYSISSSLTAEPGSAGATYTCQVTHISLEEPLGASTQVVPPERR
notes: domain: luminal domain; Molecular chaperone; also called TAPBR; HIS-Tagged TAPBPR; not shown: His6 tag
  binding result: no binding
